T1: human EL (vascular endothelial lipase) (human, UniProt Q9Y5X9 21-500)
T1 sequence: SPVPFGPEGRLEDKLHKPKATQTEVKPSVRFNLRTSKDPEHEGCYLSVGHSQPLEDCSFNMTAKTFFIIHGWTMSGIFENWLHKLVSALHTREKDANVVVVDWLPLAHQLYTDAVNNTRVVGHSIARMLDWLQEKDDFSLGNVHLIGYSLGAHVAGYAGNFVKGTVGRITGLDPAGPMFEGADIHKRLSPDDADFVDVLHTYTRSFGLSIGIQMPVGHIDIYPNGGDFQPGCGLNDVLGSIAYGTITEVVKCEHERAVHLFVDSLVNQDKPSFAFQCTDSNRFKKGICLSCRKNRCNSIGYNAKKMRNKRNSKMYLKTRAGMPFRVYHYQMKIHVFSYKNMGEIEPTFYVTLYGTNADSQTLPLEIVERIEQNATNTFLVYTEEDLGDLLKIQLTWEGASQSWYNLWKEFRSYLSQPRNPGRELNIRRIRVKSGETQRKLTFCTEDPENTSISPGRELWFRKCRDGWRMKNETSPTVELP

T2: human [1-305]-mouse chimeric EL (human; mouse, UniProt Q9WVG5 306-500)
T2 sequence: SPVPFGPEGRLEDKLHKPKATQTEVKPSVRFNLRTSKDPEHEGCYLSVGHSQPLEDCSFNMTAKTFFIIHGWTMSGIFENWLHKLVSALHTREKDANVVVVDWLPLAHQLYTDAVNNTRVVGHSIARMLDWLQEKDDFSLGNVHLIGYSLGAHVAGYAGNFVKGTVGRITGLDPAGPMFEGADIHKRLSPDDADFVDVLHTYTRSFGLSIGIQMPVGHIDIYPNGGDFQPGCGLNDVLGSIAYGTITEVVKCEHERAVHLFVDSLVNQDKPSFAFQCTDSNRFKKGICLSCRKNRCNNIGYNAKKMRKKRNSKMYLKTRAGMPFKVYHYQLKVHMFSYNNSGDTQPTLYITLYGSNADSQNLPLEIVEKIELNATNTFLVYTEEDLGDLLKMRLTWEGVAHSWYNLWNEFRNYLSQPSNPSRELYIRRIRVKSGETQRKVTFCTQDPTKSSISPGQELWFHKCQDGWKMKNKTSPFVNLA

T3: human HL (hepatic lipase) (human, UniProt P11150 23-499)
T3 sequence (looked up): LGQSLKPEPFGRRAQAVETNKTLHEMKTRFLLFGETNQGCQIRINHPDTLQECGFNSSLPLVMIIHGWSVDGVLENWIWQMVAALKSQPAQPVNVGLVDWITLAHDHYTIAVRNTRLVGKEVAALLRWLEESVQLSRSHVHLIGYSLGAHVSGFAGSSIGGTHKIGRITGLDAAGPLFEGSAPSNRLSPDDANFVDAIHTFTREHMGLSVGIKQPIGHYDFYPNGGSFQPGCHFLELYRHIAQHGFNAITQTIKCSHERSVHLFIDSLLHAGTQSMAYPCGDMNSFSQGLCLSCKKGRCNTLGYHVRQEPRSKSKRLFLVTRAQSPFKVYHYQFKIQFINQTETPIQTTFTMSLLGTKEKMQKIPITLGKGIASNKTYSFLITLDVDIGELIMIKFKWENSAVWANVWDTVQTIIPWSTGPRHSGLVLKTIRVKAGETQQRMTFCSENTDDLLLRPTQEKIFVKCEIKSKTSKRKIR

T4: human LPL (lipoprotein lipase) (human, UniProt P06858 28-475)
T4 sequence (looked up): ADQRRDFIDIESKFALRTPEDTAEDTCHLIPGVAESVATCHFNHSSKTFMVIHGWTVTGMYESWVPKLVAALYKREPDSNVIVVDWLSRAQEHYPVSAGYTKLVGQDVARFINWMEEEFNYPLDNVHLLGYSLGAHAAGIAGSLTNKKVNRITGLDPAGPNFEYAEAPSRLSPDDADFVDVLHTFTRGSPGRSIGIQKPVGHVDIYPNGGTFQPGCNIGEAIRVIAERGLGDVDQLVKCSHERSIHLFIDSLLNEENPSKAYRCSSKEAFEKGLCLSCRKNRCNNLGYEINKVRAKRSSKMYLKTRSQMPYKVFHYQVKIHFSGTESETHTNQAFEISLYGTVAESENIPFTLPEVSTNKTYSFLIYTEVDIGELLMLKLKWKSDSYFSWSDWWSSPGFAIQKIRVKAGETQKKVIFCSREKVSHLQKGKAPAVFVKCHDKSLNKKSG

T5: mouse EL (mouse, UniProt Q9WVG5 21-500)
T5 sequence (looked up): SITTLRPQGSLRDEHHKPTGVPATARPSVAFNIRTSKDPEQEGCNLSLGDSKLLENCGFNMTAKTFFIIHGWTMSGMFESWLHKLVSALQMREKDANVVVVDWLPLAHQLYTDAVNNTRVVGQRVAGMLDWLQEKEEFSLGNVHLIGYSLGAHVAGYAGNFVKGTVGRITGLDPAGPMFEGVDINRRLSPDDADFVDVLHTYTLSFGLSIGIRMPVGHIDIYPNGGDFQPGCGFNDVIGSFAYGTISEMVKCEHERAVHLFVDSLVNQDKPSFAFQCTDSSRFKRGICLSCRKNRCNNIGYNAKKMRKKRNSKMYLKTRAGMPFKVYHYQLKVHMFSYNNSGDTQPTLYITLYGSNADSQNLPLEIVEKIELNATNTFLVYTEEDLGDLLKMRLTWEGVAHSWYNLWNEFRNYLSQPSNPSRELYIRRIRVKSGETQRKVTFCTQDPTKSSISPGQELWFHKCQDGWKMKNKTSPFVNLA

B1: h16B3-S2 (antibody, V domains shown)
VH: EVQLVESGGGLVQPGGSLRLSCAASGFTFSGYTMSWVRQAPGKGLEWVSEISFARDRAFYPDTVKGRFTISRDNSKNTLYLQMNSLRAEDTAVYYCARLGGRNHDYWYFDVWGQGTTVTVSS
VL: DIVMTQSPDSLAVSLGERATINCRASESVEYYGTSLMQWYQQKPGQPPKLLIYAASNVESGVPDRFSGSGSGTDFTLTISSLQAEDVAVYYCQQSWKVPFTFGQGTKLEIK
notes: humanized
B2: h13B3-S1 (antibody, V domains shown)
VH: QVQLVQSGAEVKKPGASVKVSCKASGYTFTEYTMHWVRQAPGQGLEWMGSINPYYGGTSYNEKFKDRVTMTRDTSTSTVYMELSSLRSEDTAVYYCARYGNYVGYFDYWGQGTTVTVSS
VL: EIVLTQSPGTLSLSPGERATLSCRASSSVHYMYWYQQKPGQAPRLLIYYTSNLAPGIPDRFSGSGSGTDFTLTISRLEPEDFAVYYCQQFTSSPYTFGGGTKVEIK
B3: h53A11-S1 (antibody, V domains shown)
VH: QVQLVQSGAEVKKPGASVKVSCKASGYTFTDYTMHWVRQAPGQRLEWMGGINPYYGGTTYNEKFKDRVTITRDTSASTAYMELSSLRSEDTAVYYCAKGDYYGGSYNYWGQGTTVTVSS
VL: EIVMTQSLATLSVSPGERATLSCRASQDISNSLHWYQQKPGQAPRLLIKYASQSISGIPARFSGSGSGTEFTLTISSLQSEDFAVYYCQQSNSWPYTFGQGTKLEIK
B4: h16F6-S5 (antibody, V domains shown)
VH: QVQLVQSGAEVKKPGASVKVSCKASGYTFTTYWIAWVRQAPGQGLEWMGEILPGSAKTKYNKKFKGRVTMTRDTSTSTVYMELSSLRSEDTAVYYCAVYDYGADYWGQGTTVTVSS
VL: DIQMTQSPSSLSASVGDRVSITCKASQDVYTAVAWYQQKPGKSPKLLIYSASYRFTGVPSRFTGSGAGTDFTFTISSLQPEDFATYYCQQHYSIPRTFGGGTKVEIK
B5: h23H8-S2 (antibody, V domains shown)
VH: QVQLVQSGAEVKKPGASVKVSCKASGYTFTDNTIHWVRQAPGQGLEWMGHINPYYGGTNNNEKFKDRVTMTRDTSISTAYMELSRLRSDDTAVYYCARKGIYYSSPFDYWGQGTTVTVSS
VL: DIQMTQSPSSLSASVGDRVTITCRASQDINNYLNWYQQKPGKAPKLLISYTSKLHSGVPSRFSGSGSGTDFTLTISSLQREDFATYYCQQGNTLPFTFGQGTKLEIK
B6: h55A1-S1 (antibody, V domains shown)
VH: QVQLVQSGSELKKPGASVKVSCKASGYTFTNYGMNWVRQAPGQGLEWMGWINTYSGVPTYAGDFKGRFVFSLDTSVSTAYLQISSLKAEDTAVYYCARRGYYGRRYFDVWGKGTTVTVSS
VL: DIVLTQSPASLAVSPGQRATITCKASQSVDYDVDSYMHWYQQKPGQPPKLLIYAASNLASGVPARFSGSGSGTDFTLTINPVEANDTANYYCQQTIEDPPTFGGGTKVEIK
notes: humanized

What was measured:
[1] = target: T1, human EL (vascular endothelial lipase); experiment: cell-based or functional assay
[2] = target: T2, human [1-305]-mouse chimeric EL; experiment: cell-based or functional assay
cynomolgus monkey EL [3] = target: cynomolgus monkey EL (cynomolgus monkey); experiment: cell-based or functional assay
[4] = target: T3, human HL (hepatic lipase); experiment: cell-based or functional assay
[5] = target: T4, human LPL (lipoprotein lipase); experiment: cell-based or functional assay
cynomolgus monkey EL [6] = target: T6, cynomolgus monkey EL (cynomolgus monkey); experiment: Biacore; EL captured by anti-C2-tag Ab; bivalent fit
T6 construct: Heparin extract; also called cynomolgus EL; Cynomolgus EL
Description: (§1) The binding affinities of anti-EL antibodies were measured using Biacore. […] Then, anti-EL humanized antibodies were added and the binding affinities were calculated by bivalent fitting of BIAevaluation software.

[7] = target: T2, human [1-305]-mouse chimeric EL; experiment: as above
Description: as §1

baboon EL = baboon EL (baboon); experiment: cell-based or functional assay
mouse EL = target: T5, mouse EL; experiment: cell-based or functional assay

Binder | Neutralizing activity IC50 [1] [nM] | Neutralizing activity IC50 [2] [nM] | Neutralizing activity IC50 (cynomolgus monkey EL [3]) [nM] | Neutralizing activity IC50 [4] [nM] | Neutralizing activity IC50 [5] [nM] | Kd (cynomolgus monkey EL [6]) [nM] | koff (cynomolgus monkey EL [6]) [s⁻¹] | kon (cynomolgus monkey EL [6]) [M⁻¹ s⁻¹] | Kd [7] [nM] | koff [7] [s⁻¹] | kon [7] [M⁻¹ s⁻¹] | Neutralizing activity IC50 (baboon EL) [nM] | Neutralizing activity IC50 (mouse EL) [nM]
B1 | 4.6 | 5.3 | 1.9 | > 400 | > 400 | 2 | 0.0001 | 51000 | 9.3 | 0.00022 | 24000 |  | 
B2 | 2.3 | 3 |  | > 400 | > 400 |  |  |  |  |  |  |  | 
B3 | 9.7 | 2.1 |  | > 400 | > 400 |  |  |  |  |  |  |  | 
B4 |  |  |  |  |  |  |  |  |  |  |  | 2 | 2.1
B5 | 4.5 | 1.7 |  | > 400 | > 400 |  |  |  |  |  |  |  | 
B6 | 3.9 | 2.2 | 1.6 | > 1800 | > 1800 | 0.59 | 0.00026 | 440000 | 31 | 0.00086 | 27000 |  | 
